# Experimental data from US20260176342A1 (CITRYLL B V, published 2026).
# Changes are numbered by the printed parent chain. Square brackets hold non-standard residues; d marks the D form. Ends that are not written are not given here. Cit = NC(=O)NCCC[C@H](N)C(=O)O
# T1: citrullinated histone 2A-derived peptide (SEQ ID NO: 18), C-terminal biotin (human)
# T1 construct: Captured by its biotin on NeutrAvidin plates (ELISA) or streptavidin biosensors (Octet); also called histone-derived peptide; citrullinated H2A-derived peptide
# T1 peptide: SG[Cit]GKQGGKARA-biotin
# T2: citrullinated histone 4-derived peptide (SEQ ID NO: 20), C-terminal biotin (human, citrulline at position 3; biotin at the C-terminus)
# T2 construct: Immobilized on streptavidin biosensors (Octet RED96); also called H4-derived peptide; N-terminal histone 4 peptide
# T2 peptide: SGXGKGGKGLGK
# B1: hMQ22.101j/i (antibody, V domains shown)
# VH: QVQLVQSGAEVKKPGASVKVSCKASGYTFTNYGMHWVRQAPGQGLEWMGWINTYSGEATYAQKFQGRVTMTRDTSISTAYMELSRLRSDDTAVYYCLRGYTYQSFDEGGDYWGQGTLVTVSS
# VL: DVVMTQSPLSLPVTLGQPASISCRSSQSLVESDGKTYLNWFQQRPGQSPRRLIYLVSKLDSGVPDRFSGSGSGTDFTLKISRVEAEDVGVYYCWQGTHFPYTFGQGTKLEIK
# notes: also called VL CDR1 aspartate-mutated antibody (DS site to ES); heavy chain hVH22.101j with light chain hVL22.101i
# B2: hMQ22.101j/h (antibody, V domains shown)
# VH: B1 VH
# VL: B1 VL with E31A
# notes: also called VL CDR1 aspartate-mutated antibody (DS site to AS)
# B3: hMQ22.101j/j (antibody, V domains shown)
# VH: B1 VH
# VL: B1 VL with E31S
# notes: also called VL CDR1 aspartate-mutated antibody (DS site to SS)
# B4: hMQ22.101j/LC27 (antibody, V domains shown)
# VH: B1 VH
# VL: B1 VL with V30L, E31D, S32T, G34A
# notes: also called isomerization mutant; heavy chain hVH22.101j with light chain hVL22.101LC27
# B5: hMQ22.101j/LC41 (antibody, V domains shown)
# VH: B1 VH
# VL: B1 VL with V30L, E31D, S32A
# notes: also called isomerization mutant; heavy chain hVH22.101j with light chain hVL22.101LC41
# B6: hMQ22.101j/LC42 (antibody, V domains shown)
# VH: B1 VH
# VL: B1 VL with V30L, E31D, S32N
# notes: also called isomerization mutant; heavy chain hVH22.101j with light chain hVL22.101LC42
# B7: hMQ22.101j/e (antibody, V domains shown)
# VH: B1 VH
# VL: B1 VL with E31D
# notes: Full-size antibody with full-length human heavy and light chains; also called humanized therapeutic antibody with heavy chain hVH22.101j and light chain hVL22.101e; tACPA
# B8: hMQ22.101f/g (antibody, V domains shown)
# VH: B1 VH with Q1R, V2I
# VL: B1 VL with V30L, E31D
# notes: Full-size humanized antibody; also called humanized therapeutic antibody with heavy chain hVH22.101f and light chain hVL22.101g; tACPA
# B9: hMQ22.101f/LC17 (antibody, V domains shown)
# VH: B1 VH with Q1R, V2I
# VL: B1 VL with V30L, E31D, S32T
# notes: also called isomerization mutant; heavy chain hVH22.101f with light chain hVL22.101LC17
# B10: hMQ22.101f/LC42 (antibody, V domains shown)
# VH: B1 VH with Q1R, V2I
# VL: B1 VL with V30L, E31D, S32N
# notes: also called isomerization mutant; heavy chain hVH22.101f with light chain hVL22.101LC42
# B11: hMQ22.101f/LC27 (antibody, V domains shown)
# VH: B1 VH with Q1R, V2I
# VL: B1 VL with V30L, E31D, S32T, G34A
# notes: also called isomerization mutant; heavy chain hVH22.101f with light chain hVL22.101LC27
# B12: hMQ22.101f/LC41 (antibody, V domains shown)
# VH: B1 VH with Q1R, V2I
# VL: B1 VL with V30L, E31D, S32A
# notes: also called development candidate; isomerization mutant
# Target: T1, citrullinated histone 2A-derived …
# Assay: CMC ELISA, biotinylated peptide on NeutrAvidin-coated plate, anti-human-HRP, OD 450 nm
# Procedure: (§1) hMQ22.101j/e samples from week 0, 2, 4, 6 and 8, and hMQ22.101f/g samples from week 0, 3 and 6 were subjected to an in house-validated CMC ELISA. 96-well ELISA plates were coated with NeutrAvidin™ ([…]) by overnight incubation at 4° C. Wells were washed 5 times with PBS-Tween® (polysorbate) 20 (PBS-T) and blocked by a 2 hour incubation with PBS-T+1% Bovine serum albumin (BSA) at room temperature (RT). After 5 more washes with PBS-T, wells were incubated for 1 hour at RT with a histone-derived peptide (SEQ ID NO 18: SGXGKQGGKARA), containing a citrulline (X) at position 3 and a C-terminal biotin (40 ng/well) in PBS-T+0.2% BSA. After another 5 washes with PBS-T, a calibration curve made from a reference lot of hMQ22.101j/e or hMQ22.101f/g by adding to the wells starting at […] and further diluted at a 1:1 ratio until reaching a concentration of 0.66 ng/ml in PBS-T+0.2% BSA. Spiked quality control (QC) samples made from the same reference lot hMQ22.101j/e or hMQ22.101f/g at higher (HQC, 250 ng/ml), middle (MQC, 50 ng/ml), lower (LQC 3.75 ng/ml) and lower limit quality control (LLQC, 1.25 ng/ml) were diluted in PBS-T+0.2% BSA and added to the plate as well. These QC samples were used in order to validate the ELISA results.
# (§2) Finally, accelerated stability samples that had been incubated for 0, 2, 3, 4, 6 and 8 weeks at 37° C. were added to the same plate at a concentration of 40 ng/ml in PBS-T+0.2% BSA and incubated for 2 hours at RT. Wells were washed 5 times with PBS-T and incubated with rabbit anti-human-HRP antibody (1:12.000 in PBS-T+0.2% BSA) for 1 hour at RT followed by 3 washes with PBS-T and 3 washes with PBS. Wells were incubated 10 min with TMB substrate before stopping the reaction with 2 M H₂SO₄ after which the optical density was measured at wavelength of 450 nm. A sigmoidal calibration curve was plotted and fitted using the values from the serial diluted reference antibody. Concentrations of the QC samples and accelerated stability samples were recalculated using the equation from the sigmoidal fitted curve.
row,binding result,Binder
1,binds,B1
2,binds,B2
3,binds,B3

# Target: T1, citrullinated histone 2A-derived …
# Assay: Octet RED96 off-rate screen, biotinylated peptide on streptavidin biosensors, antibody 72 nM, 30 C
# Procedure: (§3) Off-rate screening of the isomerization-mutated antibodies was performed on an Octet® RED96 (biomolecule detection system) instrument (Pall ForteBio). All measurements were performed at 30° C. Streptavidin (SA) biosensors were first washed for 50 sec with PBS. 1 μg/ml N-terminal histone 2A (SEQ ID NO: 18) and histone 4 (SEQ ID NO: 20) peptides, containing both a citrulline at position 3 and a biotin at the C-terminus, were immobilized on SA biosensors for 200 sec, washed with PBS for 50 sec and excess reactive streptavidin molecules blocked with EZ-Link™ biocytin for 200 sec. After two additional 50 sec wash steps in PBS, antibodies at a concentration of 72 nM diluted in PBS were allowed to bind to the biosensors for 200 sec. Sensors were subsequently placed in PBS for 4000 sec in order to measure their dissociation rates.
# (§4) Background signals generated with non-coated biosensors, which have been exposed to the various antibodies as well as signals from coated biosensors that have not been exposed to the various antibodies, have been subtracted before dissociation curves for each antibody were plotted. Both histone 2A and histone 4 dissociation rates constants (kdis×E-07 (1/s)) for each antibody were calculated applying a 1:1 interaction model (fitting local, full) using ForteBio data analysis software 8.1.
row,binding result,Binder
1,binds,B4
2,binds,B5
3,binds,B6

# Target: T2, citrullinated histone 4-derived peptide …
# Assay: as above
# Procedure: as §3, §4
row,binding result,Binder
1,binds,B4
2,binds,B7
3,binds,B5
4,binds,B6
5,binds,B8

# Target: T1, citrullinated histone 2A-derived …
# Assay: CMC ELISA, biotinylated peptide on NeutrAvidin-coated plate, anti-human-HRP, OD 450 nm, interpolated on a calibration curve
# Procedure: as §1, with “Spiked quality control (QC) samples made from the same reference lot hMQ22.101j/e or hMQ22.101f/g at higher (HQC, 250 ng/ml), middle (MQC, 50 ng/ml), lower (LQC 3.75 ng/ml) and lower limit quality control (LLQC, 1.25 ng/ml) were diluted in PBS-T+0.2% BSA and added to the plate as well. These QC samples were used in order to validate the ELISA results.” left out
# Finally, accelerated stability samples that had been incubated for 0, 2, 3, 4, 6 and 8 weeks at 37° C. were added to the same plate at a concentration of 40 ng/ml in PBS-T+0.2% BSA and incubated for 2 hours at RT. […] Wells were incubated 10 min with TMB substrate before stopping the reaction with 2 M H₂SO₄ after which the optical density was measured at wavelength of 450 nm. […]
row,binding result,Binder
1,binds,B7
2,binds,B8

# Target: T1, citrullinated histone 2A-derived …
# Assay: CMC ELISA, biotinylated peptide on NeutrAvidin-coated plate, anti-human-HRP, OD 450 nm, interpolated on the hMQ22.101f/g calibration curve
# Procedure: as §1, §2
row,binding result,Binder
1,binds,B9
2,binds,B10
3,binds,B11
4,binds,B12
